# Test results published in US20250346679A1.
# Biological target: mouse CD137, cell-surface (mouse) (UniProt P20334)
# Experiment: cell-based or functional assay
# mouse CD137, cell-surface (mouse), sequence (P20334 24-256): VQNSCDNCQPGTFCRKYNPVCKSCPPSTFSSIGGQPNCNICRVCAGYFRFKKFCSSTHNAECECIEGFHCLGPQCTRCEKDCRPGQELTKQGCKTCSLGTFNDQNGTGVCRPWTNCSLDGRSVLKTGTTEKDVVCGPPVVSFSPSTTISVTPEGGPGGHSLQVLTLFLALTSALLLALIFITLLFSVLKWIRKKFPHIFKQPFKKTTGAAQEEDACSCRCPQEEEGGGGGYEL
substance,measurement,value
G1-AA/Lob12.3 (antibody),"+XL EC50 (nM), mouse CD137 DO11.10 T cell activation assay",2.26 nM
same,"+XL Emax (IL-2 pg/ml), mouse CD137 DO11.10 T cell activation assay",21300 pg/mL
same,"EC50 (nM), mIFN-γ release, OT-1 CD8+ T cell activation assay, with anti-hCH2",0.36 nM
same,"Emax (pg/ml), mIFN-γ release, OT-1 CD8+ T cell activation assay, with anti-hCH2",17800 pg/mL
